A short description of the series: yeast display, Sf9 membrane polyspecificity reagent, FACS + sequencing; frameworks hold sequencing errors. Put shortly:
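A synthetic nanobody library was expressed on Saccharomyces cerevisiae BJ5465 by galactose induction for 36–48 hours. The library was stained for 1 hour at 4 °C with 10% biotinylated, detergent-solubilized Sf9 membrane reagent and enriched with streptavidin microbeads before FACS. Low and high (top ~1%) gates were set on anti-HA fluorescence for expression and streptavidin fluorescence for reagent binding, and each polyreactivity label reflects the gate of origin.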
For “QVQLVESGGGLVQAGGSLRLSCAASGSIFGSYAMGWYRQAPGKERSTYYADSVKGRFTISRDNAKNTVYLQMNSLKPEDTAVYYCAADTYGYQGSAGGHWGQGTQVTVSS”, the “polyreactivity (PSR sort gate)” value was “low polyreactivity”.
The value for “QVQLVESGGGLVQAGGSLRLSCAASGRIFYSYAMGWYRQAPGKERELVAAIDESDGSTYYADSVKGRFTISRDNAKNTVYLQMNSLKPEDTAVYYCAAGYLDVLWLLDLLQLYGYWGQGTQVTVSS” was “low polyreactivity”; that for “QVQLVESGGGLVQAGGSLRLSCASSGFIFVNYAMEWYRQAPGKERELVAAISRNGGRTYYADSVKGRFTISRDNAKNTVYFQMNSLKPEDTAVYYCTAELSGKRDYWGQGTQVTVSS” was “high polyreactivity”.
On to “QVQLVESRGGLVQAGGSLRLSCAASGLTFVYYAMGWYRQAPGKERELVASIDYSGSSTYYADSVKGRFTISRDNAKNTVYLQMNSLKPEDTAVYYCAATDSGEYWGQGTQVTVSS”, for which the “polyreactivity (PSR sort gate)” value was “low polyreactivity”.
With “QVQLVESGGGLVQAGGSLRLSCAASGFTFNKYAMGWYRQAPRKERELVAAISSSGGSTRYADSVKGRFTISRDNAKNTVYLQMISLKPEDTAVYYCAVYVTRDSGWWLYDYWGQGTQVTVSS”, the “polyreactivity (PSR sort gate)” value is “high polyreactivity”.
As to “QVQLVESGGGLVQAGGSLRLSCAASGLIYPVYAMGWYRQAPGKEREFVAAITYDGGNTYYADSVKGRFTISRDNAKNTVYLQMNSLKPEDTAVYYCAAEGVELISTRDPHDDYWGQGTQVTVSS”, the “polyreactivity (PSR sort gate)” value is recorded as “low polyreactivity”.
Then “QVQLVESGGGLVQAGGSLRLSCAASGSTLVIYAMGWYRQAPGKERELVAAINFSDGSTSYADSVKGRFTISRDNAKNTVYLQMNSLKPEDTAVYYWGQGTQVTVSS”, with “low polyreactivity”; and “QVQLVESGGGLVQAGGTLPLSCAASGYTISRNAKGWYRQAPGKARELDAAISRGGRTNYADSVKGRFTISRDNAKNSVYLHLNSLKPEDTAVYYCAANSTTGLRSPRGAGGHDYWGQGTQVTVSS”, with “high polyreactivity”; and “QVQLVESGGGLVQAGGSLRLSCASSGNTFKTNAMGWYRQAPGKERELVAAISSSGSTYYADSVKGRFTISRDNAKNTVYLQMNSLKPEDTAVYYCAVTYRRFYYWGQGTQVTVSS”, with “high polyreactivity”.
Then “QVQLVESGGGLVQAGGSLRLSCAASGRTIIYNTMGWSRQAPGKEREFVAAINWSGGSTYYADSVKGCFTISRDNAKNTVYLQMNSLKPEDTAVYYCNAEAGYYRPLIYDYWGQGTQVTVSS”, with “low polyreactivity”; and “QVQLVESGGGLVQAGGSLRLSCAASGSTFGRNAMGWYRQAPGKERELVAAISKTGGSTYYADSVKGRFTISRDTAKNTVYLQMNSLKPEDTAVYYCAARIRGFRTYYYWGQGTQVTVSS”, with “high polyreactivity”; and “QVQLVESGGGLVQAGGSLRLICAASGRTFRLYAMGWYRQAPGKERELVAAITRGGRTNYADSVKGRFTISRDNAKNTVYLQMNSLKPEDTAVYYCAARYVERHTDYYYWGQGTQVTVSS”, with “low polyreactivity”.
Then “QVLLVESGGGLVQAGGSLRLSCAASGSTFYYYGMGWYRQAPGKEREFVAAISWGGGSTRYADSVKGRITISRDNAKNTVYLQMNSLKPEDTAVYYCAARYPHYDYYYWGQGTQVTVSS”, with “high polyreactivity”.
Regarding “QVQLEESRGGLVQAGGSLRLSCAASGSILTGYAMGLSRQAPGKERELVAAINFSGDNTYYADSVKGRFTISRDNAKNSVYLQMNSLKPEDTAVYYCNARNAVEDDYWGQGTQVTVSS”, the “polyreactivity (PSR sort gate)” value was “low polyreactivity”.
As for “QVQLVESGGGLVQAGGSLRLSCAASGSIFPRYAMGWYRQAPGKERELVAGITSGGITYYADSVKGRFTISRDNAKNTVYLQLNSLKPEDTAVYYCAAVYYLVPGNYWGQGTQVTVSS”, the “polyreactivity (PSR sort gate)” value is “high polyreactivity”.
The value for “QVQLVESGGGLVQAGGSLRLSCAASGSTFYSNAMGCYRQAPGKEREFVAAITGGDVRTYYADSVKGRFTISRDNAKNTVYLPMNSLKPEDTAVYFCATGPYIWPEWSPGFDYWGQGTQVTVSS” was “low polyreactivity”; that for “QVQLVESGGGLVQAGGSLRLSCAASGLIFHTYAMGWYRQAPGKERELVAAIRGGGSTNYADSVKGRFTISRDNAKNTVYLQMKSLKPEDTAVYYCNATWNLFPGVLDRYDYWGQGTQVTVSS” was “low polyreactivity”.
Then “QVQLVESGGGLVQAGGSLRLSCAASGRTFGNYAMGWYRQAPGKERELVAAITSAGRTYYADSVKGRFTISRDNAKNTVYLQMNSLKPEDTAVYYCNANRVSPYYWGQGTQVTVSS”, with “low polyreactivity”.
For “QVQLVESGGGLVQAGGSLRLSCAASGSIFWYNAMGWYRQAPGKERELVAAIDRSGGNTYYADSVKGRFTISRDNAKNTVYLQMNSLKPEDTAVYYCARRIGRTYRYVYWGQGTQVTVSS”, the “polyreactivity (PSR sort gate)” value is recorded as “high polyreactivity”.
The value for “QVQLVESGGGLVQAGGSLRLSCAASGFTFGHYAMGWYRPAPGKERELVAAISSGDRTYYADSVKGRFTISRDNAKNTVYLQMNSLKPEDTAVYYCNAVYYSWAQSARFDYWGQGTQVTVSS” was “low polyreactivity”.
The value for “QVQLVESGGGLVQAGGSLRLSCAASGLIFTVNAMGWYRQAPGKDRELVAAISGGDSTNYADSVKGRFTISRDNAKNTVYLQMNSLKPEDTAVYYCAVRGRAQYTSRRYGYWGQGTQVTVSS” was “high polyreactivity”; that for “QVQLVESGGGLVQAGGSLRLSCAASGPIFKRNAMGWYRQAPGKERELVAAISGSGGRTYYADSVKGRFTISRDNAKNTVYLQMNSLKPEDTAVYYCNAGGSYYARGMDYWGQGTQVTVSS” was “high polyreactivity”.
As to “QVQLVESGGCLVQAGGSLRLSCAASGIIFGRYTMGWYRQAPGKERELVAAITSSGITYYADSVKGRVTISRDNAKNTVYLQMNSLKPEDTAVYYCNADYSSPGYYWPYDYWGQGTQVSVSS”, the “polyreactivity (PSR sort gate)” value is on record as “low polyreactivity”.
Consider “QVQLVESGGGLVQAGGSLRLSCAASGFTFGSYVMGWYRQAPGKERELVADISIRGGSTYYADSVKGRFTISRDNAKNTVYLQMNSLKPEDTAVYYCNADPAFYYWEGIVGGADYDYWGQGTQVTVSS”, for which the “polyreactivity (PSR sort gate)” value is “low polyreactivity”.
Regarding “QVQQQESGGGLVQAGGILRMSCAASGTIFSEANMGSYRQAPGKERELVATIGQGSTTNYADSVKGRFTISRDNAKNTVYLQMNSLKPEETAVYYCAVVNVDPVGFVYWGQGTQVTVSS”, the “polyreactivity (PSR sort gate)” value was “low polyreactivity”.
Take “QVQLVESGGGLVQAGGSLRLSCAASGFTFYKYAMGWYRQAPGKERELVAAISRRGTSTYYADSVKGRFTISRDNAKNTVYLQMNSLKPEDTAVYYCNRDVSLSAFDYWGQGTQVTVSS”: the “polyreactivity (PSR sort gate)” value is on record as “high polyreactivity”.
The value for “QVQLVESGGGLVQAGGSLRLSCAASGRIFGWYAMGWYRQSPGKERELVAAITGSGSRTYYADSVKGRFTISRDNAKNTVYLQMNSLKPEDTAVYYCAVPTRRRRIYDYWGQGTQVTVSS” was “high polyreactivity”; that for “QDQLVESGGGLVQAGGSLRLSCAASGRILINNAMVWYRQAPGKERELVARITRGGRTNYADSVNGRFTISRDNPKNTDYFQMYCPKPVDTAVYDCNAEYVTPYYYGFGAKRDYWGQGTQVTVSS” was “low polyreactivity”; that for “QLQLVESGGGLVQAGGSLRLSCAASGFTFVSNAMGWYRQAPGKERELVAVISSGGSTTYADSVKGRFSISPDNAKNTVYLQMNSLKPEDTAGYYCATTNSQDSYEGGDYWGQGTQVTVSS” was “low polyreactivity”.
Turning to “QDQHVESGGGLVQAGGSLRLSCAASGRTFYRNAMGWYRQAPGKEREFVAVISVSCGSTYYADSVKGRFTISRDNAKNTVYLQMNSLKPEDTAVYYCAKRGPVRKTAYDYCGQGTQVTVSS”, the “polyreactivity (PSR sort gate)” value is given as “low polyreactivity”.
Then “QVQLVESGGGLVQAGGSLRLSCAASGFTFYLYTMGWYRQAPGKERELVAAINYSGGRTYYADSVKGRFTISRDNAKNTVYLQMNSLKPEDTAVYYCYPRVKNLQAYDYWGQGTQVTVSS”, with “high polyreactivity”; and “QFQLVESGGGLVQAGGSLRLSCAASGITFYRYAMGWYRQAPGKERELVASISSRGSSTYYADSVKGRFTISRDNAKNTVYLQMNSLKPEDTAVYYCAKSRGSRGFVASTYNYWGQGTQVTVSS”, with “high polyreactivity”.
Turning to “QVQLGESGGGLVQAGGSLRLSCAASGFTFYNYAMGWYRQAPGKERELVAAISTSGGSTYYADSVKGRFTISRDNAKNTVYLQMNSLKPEDTAVYYCAAQATAYSYAYYYWGQGTQVTVSS”, the “polyreactivity (PSR sort gate)” value is “low polyreactivity”.
Then “QVQLVESGGGLVQAGGSLRLSCAASGRIFYSNAMGWYRQAPGKERELVAASRWSGTRTSYADSVKGRFTISRDNAKNTVYLQMNSLKPEDTAVYYCAAAGWYHSYWGQGTQVTVSS”, with “high polyreactivity”.
Then “QVQLVESGGGLVQAGGSLRLSCAASGITLINYAMGWYRQAPGKERELVAAISTSGSSTYYADSVKGRFTISRDNAKNTVYLQMNSLKPEDTAVYYCAAELDVYSLFGYWGQGTQVTVSS”, with “low polyreactivity”.
As to “QVQLVESGGGLVQAGGSLSLICAASGFTFVDYAMGWYRQAPGKERELVAAITVSGDSTYYADSVKGRFTISRDIAKNTVYFQMNSLKPEDTAVYYCAADPGYYDGGYWGQGTQVTVSS”, the “polyreactivity (PSR sort gate)” value is listed as “low polyreactivity”.
The value for “QVQLVESGGGLVQAGGSLRLSCAASGSILVGYAMGRYRLAPGKERELVAAISFSGGSTYYADSVKGRFTISRDNAKNTVYLQMNRLKQEDTAVYYCAAKRRVWIFYSSSDDYWGQGSQVTVSS” was “low polyreactivity”; that for “QVQLVESGGGLVQAGGSLRLSSAASGSILYFNAMGWYRQAPGKERELVAAISRSGGSTYYADSVKGRFTISRDNAKNTVYLQMNSLKPEDTAVYYCAAVYIRCRGNRFDYWGQGTQVTVSS” was “high polyreactivity”; that for “QVQLVESGGGLVQAGGSLRLSCAASGQIFSRYAMGWSRQAPGNERELVAAITWSGGRTYYADSVKGRFTISRDNAKYTVYLQMNSLKAEDTAVYYCAATRYPLPEYYWGQGTQGTVSS” was “high polyreactivity”.
Take “QVQLVESGGGLVQARGSLRLSCAASGSTLSPYVMGWYRQAPGKERELVATISRSGGRTYYADSVKGRFTISRDNAKNTVYLQMNSLKPEDTAVYYCAARTYYWGALIVSYDYWGQGTQGTVSS”: the “polyreactivity (PSR sort gate)” value is “low polyreactivity”.
The value for “QDQLVESGGGLLQAGASLRLSCAASGFIFDSYAIGWDRQAPGKERELVAAITSSGSSTYYADSVKGRFTISRDNAKNTVYLQMNSLKPEDTAVYYCNAVYSATVVAWRFGYWGQGTQVTVSS” was “high polyreactivity”.

The values above are taken from the nanobody polyreactivity screen of Harvey et al. (2022).
